Measurements published in PMC3130009, “Trichinella spiralis Paramyosin Binds to C8 and C9 and Protects the Tissue-Dwelling Nematode from Being Attacked by Host Complement” (PLoS Neglected Tropical Diseases, 2011).

How the values were obtained:
Assay in all cases: cell-based or functional assay
[1] = biological target: human complement component C8, alpha chain (human, UniProt P07357 31-584)
[2] = biological target: human complement component C8, beta chain (human, UniProt P07358 55-591)
[3] = biological target: human complement component C9 (human, UniProt P02748 22-559)

Measured: reduction of alternative-pathway complement-mediated lysis of rabbit erythrocytes by 6% normal guinea pig serum, 0 to 40 µg rTs-Pmy (55.7% at 10 µg)

human complement component C9, sequence (P02748 22-559): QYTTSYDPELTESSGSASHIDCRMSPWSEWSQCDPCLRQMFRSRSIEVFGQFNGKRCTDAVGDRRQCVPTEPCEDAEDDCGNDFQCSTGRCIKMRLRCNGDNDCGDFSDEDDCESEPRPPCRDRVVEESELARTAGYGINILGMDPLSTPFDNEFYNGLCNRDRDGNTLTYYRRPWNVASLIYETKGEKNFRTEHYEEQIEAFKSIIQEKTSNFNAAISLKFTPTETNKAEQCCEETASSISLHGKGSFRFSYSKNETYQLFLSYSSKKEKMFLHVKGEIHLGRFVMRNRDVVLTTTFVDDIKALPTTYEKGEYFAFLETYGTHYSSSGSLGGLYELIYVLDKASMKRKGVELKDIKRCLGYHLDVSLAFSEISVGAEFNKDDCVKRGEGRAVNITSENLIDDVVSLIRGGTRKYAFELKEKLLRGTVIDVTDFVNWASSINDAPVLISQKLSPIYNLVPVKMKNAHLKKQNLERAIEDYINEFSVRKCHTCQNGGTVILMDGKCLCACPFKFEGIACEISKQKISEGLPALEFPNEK
human complement component C8, alpha chain, sequence (P07357 31-584): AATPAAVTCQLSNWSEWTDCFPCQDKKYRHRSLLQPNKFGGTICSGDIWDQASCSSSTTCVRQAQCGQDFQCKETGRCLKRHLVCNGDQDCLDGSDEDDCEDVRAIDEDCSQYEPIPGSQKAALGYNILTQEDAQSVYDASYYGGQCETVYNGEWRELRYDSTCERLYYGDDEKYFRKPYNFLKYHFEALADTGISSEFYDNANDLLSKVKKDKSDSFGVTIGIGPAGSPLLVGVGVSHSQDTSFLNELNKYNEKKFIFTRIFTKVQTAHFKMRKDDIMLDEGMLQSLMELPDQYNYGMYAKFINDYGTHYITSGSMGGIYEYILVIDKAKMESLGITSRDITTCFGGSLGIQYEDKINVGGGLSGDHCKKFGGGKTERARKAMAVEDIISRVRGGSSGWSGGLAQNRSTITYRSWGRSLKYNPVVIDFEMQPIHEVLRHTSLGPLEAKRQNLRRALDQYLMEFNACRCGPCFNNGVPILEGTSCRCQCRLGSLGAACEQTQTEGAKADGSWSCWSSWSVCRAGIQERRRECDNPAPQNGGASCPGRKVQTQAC
human complement component C8, beta chain, sequence (P07358 55-591): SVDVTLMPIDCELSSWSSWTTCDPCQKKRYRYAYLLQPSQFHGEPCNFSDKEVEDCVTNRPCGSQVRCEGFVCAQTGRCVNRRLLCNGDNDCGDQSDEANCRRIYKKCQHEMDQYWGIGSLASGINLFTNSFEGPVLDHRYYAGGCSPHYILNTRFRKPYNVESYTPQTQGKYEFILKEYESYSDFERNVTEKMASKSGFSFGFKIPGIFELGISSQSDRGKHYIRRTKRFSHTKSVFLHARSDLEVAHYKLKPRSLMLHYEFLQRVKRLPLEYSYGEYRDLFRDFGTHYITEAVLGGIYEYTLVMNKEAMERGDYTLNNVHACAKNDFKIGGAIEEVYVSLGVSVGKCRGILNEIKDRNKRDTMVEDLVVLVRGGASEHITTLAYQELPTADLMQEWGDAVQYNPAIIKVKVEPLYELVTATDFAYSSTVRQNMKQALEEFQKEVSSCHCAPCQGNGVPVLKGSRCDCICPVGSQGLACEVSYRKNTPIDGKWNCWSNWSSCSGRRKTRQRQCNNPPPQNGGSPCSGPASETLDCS

B1: recombinant Trichinella spiralis paramyosin (natural protein)
chain: MSLYRSPSASVMRSASMLSRSGGFDAYGFGGYGAPSLNVADLGSLTRLEDKIRLLQDDLETERELRNRIERERADLSCQLISLTDRLEEAEGTTDAQIDANRKRESELQKLRKILEDSQLESEDSLNQLRKKHQESLLDYQQQIEQLQKKNSKIDRERQRLQHEVIELTAGIDQMQKDKHAAEKAAEKHEAHARELQNRVDDLAKNLNDLASQRQRLQQENNDLMKELHDVKVQMENIQHVKTQLAQQLEEARRRLEDAERERSQMQTQLHQMQLELDSIQGALEEESSARAEAEHKLSLANTEISQWKSKFDAEVSLHQEEVDDLRKKMIQKQAEYEEQIEIMLQKISQLEKAKSRLQSEVEVLIVDLEKAQSTIAILERQKEQLERMVAEMKTRLDEVTQELEATQRELRATQAELQKMKHLYEKAVEQKEALARENKKLQDDLHEAKEALADANRKLHELDLENARLAGEIRELQIALKEAEAARRDAESRAQRAVAELQALRVEMERRLQEKEEEMEALRKNMQFEIDRLAAALADAEARMKAEISRLKKKYQAEIAELEMTIDNLNRANLEAQKTIKKQADQLRALQSSFEDCQRQLQQTLDQYAIAQRKLSALSAELEDCKSALDTAIRVRKQAEADLEEAQGKIADLVSLNNNLTAIKGKLETDLSTCQADLDETTKELRAADDRANRAQQDAVRAMEQLHEEQEHSMKIDAMRKALEEHVKQLQVQIQEAEAAALLGGKRVIAKLETRIRDLEMALDEESRRHKETQACLRKKDRRVKEMQMQVDEEHKNFVMAQDTAERLAEKLNIYKRQLTEAESLTMQNLQRVRRYQHELEDAEGRAEQAESSLHLIRAKHRSSVSMGKSLSSKVYVMEEGHEY
91.9 % reduction of lysis: all assays above
